In patent US20260176343A1 (UCL BUSINESS, published 2026):
Residue numbers refer to the chain shown, from its start.

B1: NVG-111 (bispecific antibody)
chain: QVQLVESGGGVVQPGRSLRLSCAASGFIFSEHNMAWVRQAPGKGLEWVATISDDGRNTYYRDSMRGRFTISRDNSKNTLYLQMNSLRAEDTAVYYCTSHRYNLFDSWGQGTMVTVSSGGGGSGGGGSGGGGSDIQMTQSPSSLSASVGDRVTITCKASQNIDRYLNWYQQKPGKAPKRLIYNTNKLQTGVPSRFSGSGSGTEFTLTISSLQPEDFATYYCLQYNSLPLTFGQGTKLEIKSGSGGGGSQVQLVQSGAEVKKPGSSVKVSCKASGYTFTRYTMHWVRQAPGQGLEWMGYINPSRGYTNYNQKFKDRVTITADKSTSTAYMELSSLRSEDTAVYYCARYYDDHYCLDYWGQGTMVTVSSVEGGSGGSGGSGGSGGVDDIQMTQSPSSLSASVGDRVTITCSASSSVSYMNWYQQKPGKAPKRLIYDTSKLASGVPSRFSGSGSGTEFTLTISSLQPEDFATYYCQQWSSNPFTFGQGTKVEIKHHHHHH
B2: AR_TCE-1 (bispecific antibody)
chain: QVQLVESGGGVVQPGRSLRLSCAASGFIFSEHNMAWVRQAPGKGLEWVATISDDGRNTYYRDSMRGRFTISRDNSKNTLYLQMNSLRAEDTAVYYCTSHRYNLFDSWGQGTMVTVSSGGGGSGGGGSGGGGSDIQMTQSPSSLSASVGDRVTITCKASQNIDRYLNWYQQKPGKAPKRLIYNTNKLQTGVPSRFSGSGSGTEFTLTISSLQPEDFATYYCLQYNSLPLTFGQGTKLEIKSGGGGSIEPDSESQGGGGSQVQLVQSGAEVKKPGSSVKVSCKASGYTFTRYTMHWVRQAPGQGLEWMGYINPSRGYTNYNQKFKDRVTITADKSTSTAYMELSSLRSEDTAVYYCARYYDDHYCLDYWGQGTMVTVSSVEGGSGGSGGSGGSGGVDDIQMTQSPSSLSASVGDRVTITCSASSSVSYMNWYQQKPGKAPKRLIYDTSKLASGVPSRFSGSGSGTEFTLTISSLQPEDFATYYCQQWSSNPFTFGQGTKVEIKHHHHHH
B3: AR_TCE-3 (bispecific antibody)
chain: B2 chain with E251L, S252E, Q253E

The binders below were run against ROR1 on Jeko-1 cells (UniProt Q01973 30-937, limits assumed) (assay: cell-based or functional assay).

Binder | maximum target cell death, long-term (120 h) killing assay, 1 µg/mL, 1:10 effector to target ratio
B1 | 60.5%
B2 | 58.7%
B3 | 55.7%
